Test results reported in patent publication US20240263208A1, “CYTOCHROME P450 ENZYME” (HYPHA DISCOVERY LTD., priority 2021, published 2024).

Key:
Format in all cases: biochemical
[1] = Oxidase activity testing against tolbutamide; conditions: for Average % conversion: substrate Tolbutamide, Batch 2
Experimental: (§1) Lyophilised material of recombinant P450, ferredoxin and ferredoxin reductase proteins was made as described in Example 4 and reconstituted in high purity water to the original volume. Biocatalysis was performed with shaking incubation at 27° C. in the following conditions: 100 mM potassium phosphate pH 8.0, 5 mM MgCl2 (both present in the reconstituted enzyme preparation) and 0.1 mg/ml substrate compound such as ambroxide (Sigma-Aldrich, UK), carbamazepine (Sigma-Aldrich, UK), diclofenac (Sigma-Aldrich, UK), tivantinib (MedChemtronica, Sweden), clarithromycin (Tokyo Chemical Industry, Japan), sclareol (Sigma-Aldrich, UK), celecoxib (LC Laboratories, USA), buparvaquone (Sigma-Aldrich, UK), BIRB796 (MedChemExpress, USA), vanoxerine (CiVentiChem, USA), valsartan (Tokyo Chemical Industry, Japan), ruxolitinib (LC Laboratories, USA), perindopril (Selleckchem, USA), solifenacin (Key Organics, UK), 7-ethoxycoumarin (Tokyo Chemical Industry, Japan), tofacitinib (LC Laboratories, USA), ebastine (Key Organics, UK), efavirenz (Key Organics, UK), propanalol (Sigma-Aldrich, UK) and tolbutamide (Key Organics, UK).
(§2) Concentrations of P450, ferredoxin and ferredoxin reductase were as extracted (Example 4). Reactions were initiated by addition of 10× stock of cofactor mixture (50 mM G6P, 10 mM NADP+, 10 UN/ml G6PDH) to provide a final volume of e.g., 10 μl to 90 μl for 100 μl total reaction volumes. After 16-20 hours, reactions were extracted with an equal volume of acetonitrile, centrifuged to remove precipitated proteins and conversion assessed by UPLC-MS analysis.
(§3) UPLC Data were Obtained as Follows: • Column: Acquity UPLC BEH Shield RP18 1.7 μm 2.1 mm i.d. 50 mm length • Solvents: H2O, B: Acetonitrile, both with 0.1% Formic acid • Flow rate: 1.0 ml/min • Detector: Waters Acquity UPLC PDA (UV-Vis detection) and Waters Acquity UPLC QDA (MS)
(§4) Representative results for the % conversions of various substrates to products by enzymes with mutations at position T109 or L198 and double mutants at T109 and 1129/L198 are shown in Table 4 below.

[2] = Oxidase activity testing against vanoxerine; conditions: for Average % conversion: substrate Vanoxerine, Batch 2
Experimental: as §1, §2, §3, §4

[3] = Oxidase activity testing against 7-ethoxycoumarin; conditions: for Average % conversion: substrate 7-ethoxycoumarin, Batch 2
Experimental: as §1, §2, §3, §4

[4] = Oxidase activity testing against ruxolitinib; conditions: substrate Ruxolitinib; Batch 2
Experimental: as §1, §2, §3, §4

[5] = Oxidase activity testing against celecoxib; conditions: substrate Celecoxib; Batch 2
Experimental: as §1, §2, §3, §4

[6] = Oxidase activity testing against solifenacin; conditions: for Average % conversion: substrate Solifenacin, Batch 2
Experimental: as §1, §2, §3, §4

[7] = Oxidase activity testing against efavirenz; conditions: for Average % conversion: substrate Efavirenz, Batch 2
Experimental: as §1, §2, §3, §4

[8] = Oxidase activity testing against propanalol; conditions: for Average % conversion: substrate Propanalol, Batch 2
Experimental: as §1, §2, §3, §4

[9] = Oxidase activity testing against clarithromycin; conditions: for Average % conversion: substrate Clarithromycin, Batch 2
Experimental: as §1, §2, §3, §4

[10] = Oxidase activity testing against BIRB796; conditions: substrate BIRB796; Batch 2
Experimental: as §1, §2, §3, §4

[11] = Oxidase activity testing against sclareol; conditions: for Average % conversion: substrate Sclareol, Batch 2, UPLC-MS UV or MS peak areas
Experimental: as §1, §2, §3, §4

[12] = Oxidase activity testing against tofacitinib; conditions: substrate Tofacitinib; Batch 2
Experimental: as §1, §2, §3, §4

[13] = Oxidase activity testing against perindopril; conditions: for Average % conversion: substrate Perindopril, Batch 2
Experimental: as §1, §2, §3, §4

[14] = Oxidase activity testing against ebastine; conditions: for Average % conversion: substrate Ebastine, Batch 2
Experimental: as §1, §2, §3, §4

[15] = Oxidase activity testing against valsartan; conditions: for Average % conversion: substrate Valsartan, Batch 2
Experimental: as §1, §2, §3, §4

[16] = Oxidase activity testing, lyophilised recombinant P450/ferredoxin SeuF08/ferredoxin reductase SCF15A against ambroxide; conditions: for +16 Da (1.50 min) 253 m/z / +16 Da (1.60 min) 253 m/z / +16 Da (2.04 min) 253 m/z: oxidised ambroxide product; for +16 Da (1.50 min) 253 m/z / +16 Da (1.60 min) 253 m/z / +16 Da (2.04 min) 253 m/z / Ambroxide (2.22 min) 237 m/z: relative MS peak area; for Ambroxide (2.22 min) 237 m/z: remaining substrate, 0.1 mg/ml ambroxide, 27° C., 16-20 hours; for Average % conversion: substrate ambroxide, relative MS peak areas
Experimental: as §1, §2, §3
To confirm the identities of reaction products where known, their chromatographic retention time, mass and ultraviolet spectra were compared with those of authentic metabolite standards.
Representative results for the % conversions of ambroxide to oxidised (+16 Da) products for single point mutants at position T109 are shown in Table 2 below.

[17] = Oxidase activity testing against buparvaquone; conditions: for Average % conversion: substrate Buparvaquone, Batch 2
Experimental: as §1, §2, §3, §4

| Molecule | Average % conversion [1] | Average % conversion [2] | Average % conversion [3] | Average % conversion [4] | Average % conversion [5] | Average % conversion [6] | Average % conversion [7] | Average % conversion [8] | Average % conversion [9] | Average % conversion [10] | Average % conversion [11] | Average % conversion [12] | Average % conversion [13] | Average % conversion [14] | Average % conversion [15] | +16 Da (1.50 min) 253 m/z [16] | +16 Da (1.60 min) 253 m/z [16] | +16 Da (2.04 min) 253 m/z [16] | Ambroxide (2.22 min) 237 m/z [16] | Average % conversion [16] | other results |
| --- | --- | --- | --- | --- | --- | --- | --- | --- | --- | --- | --- | --- | --- | --- | --- | --- | --- | --- | --- | --- | --- |
| M30: P450SeuC10 with L198F and T109F double mutations, SEQ ID NO: 126 (protein, SeuC10M30) MKIGTTHLTRLRGLSMTELTDITGPAAQAETVAFPQDRTCPYHPPTGYDPLRDGRPLSRVTLYDGREVWLVTAQATARALLADPRLSTDRRRDGFPVPTPRFAAGRDRFLALLGLDDPEHHRQRRLLIPSFTLKRATAQRPWIQRIVDELLDAMIARGPVADLVSAFALPVPSMVICELLGVPYADHEFFEEQSRRLFRGPTGADTTDARDRLEAYLGDLIDAKAKEAEPGDGILDDLVHNRLRAGELDRSVLVSLAVILLVAGHETTANMISLGTYTLLQHPERLAELRADPSLLPAVVEELLRMLSIAEGLQRLALEDIEIDGITIRAGEGVLFSTSVINRDTAVYEDPDDLDFHRADRHHVAFGFGIHQCLGQNLARAELEIALGSLFTRLPGLRLAAPAEEIPFKPGDTVQGMLELPVTW | 35.7% | 79.1% | 38% | 99.1% | 21.6% | 3% | 0% | 0% | 0.9% | 38.5% | 31% | 33.3% | 61.4% | 9.7% | 17.1% | – | – | – | – | – | conversion of perindopril compared to wild-type (in words) [13]: significantly increased conversion |
| SeuC10M27: P450SeuC10 with T109V mutation, SEQ ID NO: 58 (protein, SeuC10M27) MKIGTTHLTRLRGLSMTELTDITGPAAQAETVAFPQDRTCPYHPPTGYDPLRDGRPLSRVTLYDGREVWLVTAQATARALLADPRLSTDRRRDGFPVPTPRFAAGRDRVLALLGLDDPEHHRQRRLLIPSFTLKRATAQRPWIQRIVDELLDAMIARGPVADLVSAFALPVPSMVICELLGVPYADHEFFEEQSRRLLRGPTGADTTDARDRLEAYLGDLIDAKAKEAEPGDGILDDLVHNRLRAGELDRSVLVSLAVILLVAGHETTANMISLGTYTLLQHPERLAELRADPSLLPAVVEELLRMLSIAEGLQRLALEDIEIDGITIRAGEGVLFSTSVINRDTAVYEDPDDLDFHRADRHHVAFGFGIHQCLGQNLARAELEIALGSLFTRLPGLRLAAPAEEIPFKPGDTVQGMLELPVTW | – | – | – | – | – | – | – | – | – | – | – | – | – | – | – | 58.6% | 0.9% | 2.3% | 38.2% | 61.7% | – |
| M53: P450SeuC10 with T109P mutation, SEQ ID NO: 124 (protein, SeuC10M53) MKIGTTHLTRLRGLSMTELTDITGPAAQAETVAFPQDRTCPYHPPTGYDPLRDGRPLSRVTLYDGREVWLVTAQATARALLADPRLSTDRRRDGFPVPTPRFAAGRDRPLALLGLDDPEHHRQRRLLIPSFTLKRATAQRPWIQRIVDELLDAMIARGPVADLVSAFALPVPSMVICELLGVPYADHEFFEEQSRRLLRGPTGADTTDARDRLEAYLGDLIDAKAKEAEPGDGILDDLVHNRLRAGELDRSVLVSLAVILLVAGHETTANMISLGTYTLLQHPERLAELRADPSLLPAVVEELLRMLSIAEGLQRLALEDIEIDGITIRAGEGVLFSTSVINRDTAVYEDPDDLDFHRADRHHVAFGFGIHQCLGQNLARAELEIALGSLFTRLPGLRLAAPAEEIPFKPGDTVQGMLELPVTW | 77.6% | 44.5% | 67.2% | 98.6% | 39.1% | 33.6% | 1.8% | – | – | 36.3% | 52.7% | 67.5% | 46.5% | 17.4% | 14.3% | – | – | – | – | – | conversion of tolbutamide compared to wild-type (in words) [1]: significantly increased conversion; conversion of 7-ethoxycoumarin compared to wild-type (in words) [3]: significantly increased conversion; conversion of solifenacin compared to wild-type (in words) [6]: significantly increased conversion; conversion of buparvaquone compared to wild-type (in words) [17]: significantly increased conversion; product at 1.97 minutes from buparvaquone (hydroxylation of a t-butyl methyl group) ([17]; FIG. 8): increased production; Average % conversion [17]: 54.7%; product at 1.38 minutes from ebastine ([14]; FIG. 9): increased production |
| SeuC10M26: P450SeuC10 with T109I mutation, SEQ ID NO: 56 (protein, SeuC10M26) MKIGTTHLTRLRGLSMTELTDITGPAAQAETVAFPQDRTCPYHPPTGYDPLRDGRPLSRVTLYDGREVWLVTAQATARALLADPRLSTDRRRDGFPVPTPRFAAGRDRILALLGLDDPEHHRQRRLLIPSFTLKRATAQRPWIQRIVDELLDAMIARGPVADLVSAFALPVPSMVICELLGVPYADHEFFEEQSRRLLRGPTGADTTDARDRLEAYLGDLIDAKAKEAEPGDGILDDLVHNRLRAGELDRSVLVSLAVILLVAGHETTANMISLGTYTLLQHPERLAELRADPSLLPAVVEELLRMLSIAEGLQRLALEDIEIDGITIRAGEGVLFSTSVINRDTAVYEDPDDLDFHRADRHHVAFGFGIHQCLGQNLARAELEIALGSLFTRLPGLRLAAPAEEIPFKPGDTVQGMLELPVTW | – | – | – | – | – | – | – | – | – | – | – | – | – | – | – | 58.3% | 0.0% | 0.0% | 41.7% | 58.3% | – |
| M32: P450SeuC10 with T109F and I259L double mutations, SEQ ID NO: 130 (protein, SeuC10M32) MKIGTTHLTRLRGLSMTELTDITGPAAQAETVAFPQDRTCPYHPPTGYDPLRDGRPLSRVTLYDGREVWLVTAQATARALLADPRLSTDRRRDGFPVPTPRFAAGRDRFLALLGLDDPEHHRQRRLLIPSFTLKRATAQRPWIQRIVDELLDAMIARGPVADLVSAFALPVPSMVICELLGVPYADHEFFEEQSRRLLRGPTGADTTDARDRLEAYLGDLIDAKAKEAEPGDGILDDLVHNRLRAGELDRSVLVSLAVLLLVAGHETTANMISLGTYTLLQHPERLAELRADPSLLPAVVEELLRMLSIAEGLQRLALEDIEIDGITIRAGEGVLFSTSVINRDTAVYEDPDDLDFHRADRHHVAFGFGIHQCLGQNLARAELEIALGSLFTRLPGLRLAAPAEEIPFKPGDTVQGMLELPVTW | 56.1% | 88.8% | 20.2% | 99.2% | 35.6% | 25.9% | 1.2% | 1.6% | 23.3% | 90.6% | 84.5% | 40.8% | 45.6% | 10.4% | 66.8% | – | – | – | – | – | conversion of vanoxerine compared to wild-type (in words) [2]: significantly increased conversion; conversion of efavirenz, not converted by wild-type (in words) [7]: achieved conversion; conversion of propanalol, not converted by wild-type (in words) [8]: achieved conversion; conversion of clarithromycin, not converted by wild-type (in words) [9]: achieved conversion; new product at 3.12 minutes (3″-O-demethylclarithromycin) from clarithromycin ([9]; chromatographic analysis, FIGS. 5 and 6): production of a new product; Average % conversion [17]: 31.5%; conversion of sclareol compared to wild-type (in words) [11]: significantly increased conversion; product at 1.42 minutes from sclareol ([11]; FIG. 7): increased production; product at 1.55 minutes from sclareol ([11]; FIG. 7): generated a new product; conversion of valsartan compared to wild-type (in words) [15]: significantly increased conversion |
